According to patent US20090271163A1 (published 2009):

T1: heavy chain of B-domain deleted human Factor VIII (A1-A2 domains) (human, UniProt P00451 20-1667, oligosaccharide observed linked to Asn 239)
T1 construct: Residues 17-43, 334-376 and 714-754 were not modeled; also called A1-a1-A2-a2
T1 sequence (heavy): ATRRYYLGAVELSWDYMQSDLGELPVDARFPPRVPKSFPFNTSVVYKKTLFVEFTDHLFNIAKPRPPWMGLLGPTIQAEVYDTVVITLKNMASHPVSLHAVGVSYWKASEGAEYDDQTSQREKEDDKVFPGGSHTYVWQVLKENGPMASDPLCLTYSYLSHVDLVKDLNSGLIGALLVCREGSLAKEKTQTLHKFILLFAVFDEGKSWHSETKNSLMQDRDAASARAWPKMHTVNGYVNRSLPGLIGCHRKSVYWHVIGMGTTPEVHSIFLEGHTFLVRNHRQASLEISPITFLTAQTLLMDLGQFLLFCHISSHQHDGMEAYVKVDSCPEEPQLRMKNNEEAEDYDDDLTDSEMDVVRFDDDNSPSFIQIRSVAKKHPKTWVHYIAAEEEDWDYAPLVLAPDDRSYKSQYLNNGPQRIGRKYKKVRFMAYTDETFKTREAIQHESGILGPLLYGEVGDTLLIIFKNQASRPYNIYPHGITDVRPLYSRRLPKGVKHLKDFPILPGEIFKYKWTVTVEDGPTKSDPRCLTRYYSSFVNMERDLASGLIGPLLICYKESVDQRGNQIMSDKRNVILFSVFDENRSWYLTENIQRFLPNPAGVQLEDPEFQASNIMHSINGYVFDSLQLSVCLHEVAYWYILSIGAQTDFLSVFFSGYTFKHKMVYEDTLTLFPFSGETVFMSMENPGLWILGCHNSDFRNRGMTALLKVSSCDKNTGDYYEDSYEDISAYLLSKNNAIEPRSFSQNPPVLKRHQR


Legend:
[1] = molecular target: T1, heavy chain of B-domain deleted human …; assay: X-ray crystal structure
Text: X-ray diffraction data of Factor VIII crystals were collected at the NE-CAT synchrotron beamline ID-24 of the Advanced Photon Source (APS) at Argonne National Laboratory. All xray data were processed using program HKL2000 (Otwinowski, Z. & Minor, W. (1997) in Methods Enzymol (Academic Press, New York), Vol. 276, pp. 307-326) (Table 1).
For structural determination using the molecular replacement method, a homology structure model of Factor VIII was constructed from the known primary sequence of Factor VIII (McCoy, A. J. (2007) Acta Crystallogr D Biol Crystallogr 63, 32-41). Using the template structures of Factor Vai (PDBID: […]) (Sandberg, H., Almstedt, A., Brandt, J., Castro, V. M., Gray, E., Holmquist, L., Lewin, M., Oswaldsson, U., Mikaelsson, M., Jankowski, M. A., Bond, M. & Scoble, H. A. (2001) Semin Hematol 38, 4-12) and ceruloplasmin (PDBID: 1KCW) (Adams, T. E., Hockin, M. F., Mann, K. G. & Everse, S. J. (2004) Proc Natl Acad Sci U SA 101, 8918-23), the structure of the A1 and A2 domains of Factor VIII were initially determined with AMoRe (Murshudov, G. N., Vagin, A. A. & Dodson, E. J. (1997) Acta Crystallogr D Biol Crystallogr 53, 240-55) using the structure of the A1 and A2 domains of the homology model. This yielded clear rotation function and translation function solutions. […]

[2] = molecular target: the molecule itself; assay: X-ray crystal structure, crystal contact

Row | binding result [1] | Binder | binding result [2]
1 | binds | light chain of B-domain deleted human Factor VIII (A3-C1-C2 domains) (other, oligosaccharides observed linked to Asn 1810 and Asn 2118, Residues 1649-1690 and 1714-1724 were not modeled; also called a3-A3-C1-C2) light: EITRTTLQSDQEEIDYDDTISVEMKKEDFDIYDEDENQSPRSFQKKTRHYFIAAVERLWDYGMSSSPHVLRNRAQSGSVPQFKKVVFQEFTDGSFTQPLYRGELNEHLGLLGPYIRAEVEDNIMVTFRNQASRPYSFYSSLISYEEDQRQGAEPRKNFVKPNETKTYFWKVQHHMAPTKDEFDCKAWAYFSDVDLEKDVHSGLIGPLLVCHTNTLNPAHGRQVTVQEFALFLTIFDETKSWYFTENMERNCRAPCNIQMEDPTFKENYRFHAINGYIMDTLPGLVMAQDQRIRWYLLSMGSNENIHSIHFSGHVFTVRKKEEYKMALYNLYPGVFETVEMLPSKAGIWRVECLIGEHLHAGMSTLFLVYSNKCQTPLGMASGHIRDFQITASGQYGQWAPKLARLHYSGSINAWSTKEPFSWIKVDLLAPMIIHGIKTQGARQKFSSLYISQFIIMYSLDGKKWQTYRGNSTGTLMVFFGNVDSSGIKHNIFNPPIIARYIRLHPTHYSIRSTLRMELMGCDLNSCSMPLGMESKAISDAQITASSYFTNMFATWSPSKARLHLQGRSNAWRPQVNNPKEWLQVDFQKTMKVTGVTTQGVKSLLTSMYVKEFLISSSQDGHQWTLFFQNGKVKVFQGNQDSFTPVVNSLDPPLLTRYLRIHPQSWVHQIALRMEVLGCEAQDLY | 
2 |  | B-domain deleted human Factor VIII (other, oligosaccharides observed linked to Asn 1810 and Asn 2118; oligosaccharide observed linked to Asn 239, Expressed in CHO cells and crystallised; heterodimer of heavy and light chain with 2 Cu2+, 1 Ca2+ and three carbohydrate moieties; also called B-domain deleted recombinant Factor VIII (Wyeth); B domain-deleted FVIII) heavy: ATRRYYLGAVELSWDYMQSDLGELPVDARFPPRVPKSFPFNTSVVYKKTLFVEFTDHLFNIAKPRPPWMGLLGPTIQAEVYDTVVITLKNMASHPVSLHAVGVSYWKASEGAEYDDQTSQREKEDDKVFPGGSHTYVWQVLKENGPMASDPLCLTYSYLSHVDLVKDLNSGLIGALLVCREGSLAKEKTQTLHKFILLFAVFDEGKSWHSETKNSLMQDRDAASARAWPKMHTVNGYVNRSLPGLIGCHRKSVYWHVIGMGTTPEVHSIFLEGHTFLVRNHRQASLEISPITFLTAQTLLMDLGQFLLFCHISSHQHDGMEAYVKVDSCPEEPQLRMKNNEEAEDYDDDLTDSEMDVVRFDDDNSPSFIQIRSVAKKHPKTWVHYIAAEEEDWDYAPLVLAPDDRSYKSQYLNNGPQRIGRKYKKVRFMAYTDETFKTREAIQHESGILGPLLYGEVGDTLLIIFKNQASRPYNIYPHGITDVRPLYSRRLPKGVKHLKDFPILPGEIFKYKWTVTVEDGPTKSDPRCLTRYYSSFVNMERDLASGLIGPLLICYKESVDQRGNQIMSDKRNVILFSVFDENRSWYLTENIQRFLPNPAGVQLEDPEFQASNIMHSINGYVFDSLQLSVCLHEVAYWYILSIGAQTDFLSVFFSGYTFKHKMVYEDTLTLFPFSGETVFMSMENPGLWILGCHNSDFRNRGMTALLKVSSCDKNTGDYYEDSYEDISAYLLSKNNAIEPRSFSQNPPVLKRHQR light: EITRTTLQSDQEEIDYDDTISVEMKKEDFDIYDEDENQSPRSFQKKTRHYFIAAVERLWDYGMSSSPHVLRNRAQSGSVPQFKKVVFQEFTDGSFTQPLYRGELNEHLGLLGPYIRAEVEDNIMVTFRNQASRPYSFYSSLISYEEDQRQGAEPRKNFVKPNETKTYFWKVQHHMAPTKDEFDCKAWAYFSDVDLEKDVHSGLIGPLLVCHTNTLNPAHGRQVTVQEFALFLTIFDETKSWYFTENMERNCRAPCNIQMEDPTFKENYRFHAINGYIMDTLPGLVMAQDQRIRWYLLSMGSNENIHSIHFSGHVFTVRKKEEYKMALYNLYPGVFETVEMLPSKAGIWRVECLIGEHLHAGMSTLFLVYSNKCQTPLGMASGHIRDFQITASGQYGQWAPKLARLHYSGSINAWSTKEPFSWIKVDLLAPMIIHGIKTQGARQKFSSLYISQFIIMYSLDGKKWQTYRGNSTGTLMVFFGNVDSSGIKHNIFNPPIIARYIRLHPTHYSIRSTLRMELMGCDLNSCSMPLGMESKAISDAQITASSYFTNMFATWSPSKARLHLQGRSNAWRPQVNNPKEWLQVDFQKTMKVTGVTTQGVKSLLTSMYVKEFLISSSQDGHQWTLFFQNGKVKVFQGNQDSFTPVVNSLDPPLLTRYLRIHPQSWVHQIALRMEVLGCEAQDLY | binds
